In US20100240066A1 (MCGILL UNIVERSITY, published 2010):
Where no end group is shown, it is not given here.

T1: VE-cadherin/Fc chimeric protein (UniProt P33151 48-593)
T1 construct: Bought from R&D Systems; also called vascular endothelial (VE)-cadherin/Fc chimeric protein; not shown: Fc part not described
T1 sequence (looked up): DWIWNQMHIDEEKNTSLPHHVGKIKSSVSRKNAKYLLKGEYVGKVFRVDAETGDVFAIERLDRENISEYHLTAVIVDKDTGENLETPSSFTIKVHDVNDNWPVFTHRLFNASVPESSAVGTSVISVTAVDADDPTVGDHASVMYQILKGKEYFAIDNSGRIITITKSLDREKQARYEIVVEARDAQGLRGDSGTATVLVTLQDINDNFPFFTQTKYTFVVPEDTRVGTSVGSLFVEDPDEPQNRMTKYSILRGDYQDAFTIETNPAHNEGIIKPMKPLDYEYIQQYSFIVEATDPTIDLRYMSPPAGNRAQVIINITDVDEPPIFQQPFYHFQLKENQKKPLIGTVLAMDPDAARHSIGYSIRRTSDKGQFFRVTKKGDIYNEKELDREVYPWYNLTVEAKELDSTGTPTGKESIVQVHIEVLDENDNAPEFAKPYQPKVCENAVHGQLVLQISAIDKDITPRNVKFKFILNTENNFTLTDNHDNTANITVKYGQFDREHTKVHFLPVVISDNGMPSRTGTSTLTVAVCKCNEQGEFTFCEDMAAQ

T2: N-cadherin/Fc chimeric protein (human, UniProt P19022 160-724)
T2 construct: range 160-724; Bought from R&D Systems; also called N-cad/Fc; human N-cadherin/Fc chimeric protein; not shown: Fc region of human IgG1
T2 sequence (looked up): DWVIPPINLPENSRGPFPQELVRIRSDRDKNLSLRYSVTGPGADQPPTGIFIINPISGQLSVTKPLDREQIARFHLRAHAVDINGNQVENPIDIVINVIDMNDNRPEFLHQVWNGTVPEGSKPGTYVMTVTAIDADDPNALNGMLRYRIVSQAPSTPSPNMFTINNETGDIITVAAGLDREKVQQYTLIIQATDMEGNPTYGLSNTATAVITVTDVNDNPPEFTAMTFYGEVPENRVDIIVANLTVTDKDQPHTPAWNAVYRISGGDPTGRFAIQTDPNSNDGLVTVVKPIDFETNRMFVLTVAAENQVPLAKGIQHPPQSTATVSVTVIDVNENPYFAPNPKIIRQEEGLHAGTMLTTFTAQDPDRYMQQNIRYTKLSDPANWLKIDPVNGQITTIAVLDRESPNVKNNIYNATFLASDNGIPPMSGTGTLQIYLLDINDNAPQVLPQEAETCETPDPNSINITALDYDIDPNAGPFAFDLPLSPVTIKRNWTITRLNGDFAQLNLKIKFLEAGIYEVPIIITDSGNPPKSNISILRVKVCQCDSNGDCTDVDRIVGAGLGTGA

T3: E-cadherin/Fc chimeric protein (human, UniProt P12830 155-707)
T3 construct: range 155-707; Bought from R&D Systems; also called E-cad/Fc; human E-cadherin/Fc chimeric protein; not shown: Fc region of human IgG1
T3 sequence (looked up): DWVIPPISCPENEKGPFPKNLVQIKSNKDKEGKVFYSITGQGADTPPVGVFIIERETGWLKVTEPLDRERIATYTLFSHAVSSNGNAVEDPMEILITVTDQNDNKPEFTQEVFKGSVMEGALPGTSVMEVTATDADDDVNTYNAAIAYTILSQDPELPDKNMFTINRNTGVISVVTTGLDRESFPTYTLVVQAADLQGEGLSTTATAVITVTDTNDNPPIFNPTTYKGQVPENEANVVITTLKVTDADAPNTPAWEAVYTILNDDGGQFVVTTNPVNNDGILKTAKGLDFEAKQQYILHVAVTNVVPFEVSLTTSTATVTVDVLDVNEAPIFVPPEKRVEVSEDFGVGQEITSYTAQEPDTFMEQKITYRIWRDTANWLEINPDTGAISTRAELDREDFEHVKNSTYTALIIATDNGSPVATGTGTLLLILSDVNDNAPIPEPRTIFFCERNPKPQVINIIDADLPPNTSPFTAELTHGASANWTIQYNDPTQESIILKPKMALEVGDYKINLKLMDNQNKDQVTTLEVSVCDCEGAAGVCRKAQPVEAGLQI

B1: phage clone Ec 12-13 (peptide)
peptide: QWTITYPKPPAL
notes: whole phage in the assay; also called QWTITYPKPPAL
B2: phage clone Ec 7 (peptide)
peptide: WTMCYPDTC
modifications: not fully specified; cysteine pairing not given here; also: displayed on M13 phage pIII
notes: whole phage in the assay
B3: phage clone Ec 2 (peptide)
peptide: WQFCYAQHC
modifications: not fully specified; cysteine pairing not given here; also: displayed on M13 phage pIII
notes: whole phage in the assay
B4: phage clone Ec 4 (peptide)
peptide: WQMVLCPAC
modifications: not fully specified; cysteine pairing not given here; also: displayed on M13 phage pIII
notes: whole phage in the assay
B5: phage clone Ec 21 (peptide)
peptide: WQWCFKATC
modifications: not fully specified; cysteine pairing not given here; also: displayed on M13 phage pIII
notes: whole phage in the assay
B6: phage clone Ec a5 (peptide)
peptide: WTFNFCTAC
modifications: not fully specified; cysteine pairing not given here; also: displayed on M13 phage pIII
notes: whole phage in the assay

The binders below were run against T1, VE-cadherin/Fc chimeric protein (assay: phage ELISA).
Description: (§1) The binding of each clone to the cadherin/Fc chimeric proteins was confirmed by ELISA. Wells of ProBind microtiter plates (Falcon) were coated with either N-cadherin/Fc or E-cadherin/Fc chimeric protein (100 ng/well) or human IgG1 (which contains the Fc fragment) (100 ng/well). After blocking the nonspecific sites with TBS containing 3% BSA and 1.2 mM CaCl₂ for 1 h at 37° C., phage clones (10⁹ pfu) diluted in TBST containing 3% BSA and 1.2 mM CaCl₂ (100 μl/well). Non-coated wells were also used to exclude any phage that bound to the plastic surface. After 1 h incubation at room temperature, wells were washed 3 times with TBST containing 3% BSA and 1.2 mM CaCl₂. M13 phage without any insert were used to control the non-specific binding of the phage itself to the target. Monoclonal anti-M13 antibody conjugated to horseradish peroxidase (Amersham Biosciences, Piscataway, N.J.) was diluted in TBST containing 3% BSA and 1.2 mM CaCl₂ (1:2,000) and added to each well (100 μl/well). After 1 h incubation at room temperature, wells were washed three times with TBST containing 3% BSA and 1.2 mM CaCl₂ and once with TBS containing 1.2 mM CaCl₂. Horseradish peroxidase substrate, TMB (Sigma), was added to each well (100 μl/well and after color development the reaction was stopped by addition of 100 μl 0.5 M sulphuric acid to each well. The intensity of the color was measured at 450 nm.
(§2) The phage clones shown to bind to the N-cadherin/Fc chimeric protein by ELISA were also evaluated for their ability to bind to E-cadherin/Fc and VE-cadherin/Fc chimeric proteins. The phage clones shown to bind to the E-cadherin/Fc chimeric protein by ELISA were also evaluated for their ability to bind to N-cadherin/Fc and VE-cadherin/Fc chimeric proteins. The same ELISA protocol described in the previous section was used to perform this evaluation with the exception that the wells were coated with either 100 ng N-cadherin/Fc, E-cadherin/Fc or VE-cadherin/Fc chimeric protein (R&D Systems, Minneapolis, Minn.).
SWTWHFPESPPP (whole phage in the assay) [phage clone Ec 12-01]: no binding (tested: 10^9 pfu).
SWTFYWPDAQLG (whole phage in the assay) [phage clone Ec 12-06]: no binding (tested: 10^9 pfu).
EWTWVFPTTHTS (whole phage in the assay) [phage clone Ec 12-07]: no binding (tested: 10^9 pfu).
EWTFQWNSYPAD (whole phage in the assay) [phage clone Ec 12-10]: no binding (tested: 10^9 pfu).
EWDFFWPPTQTP (whole phage in the assay) [phage clone Ec 12-19]: no binding (tested: 10^9 pfu).
EWQYHWPTLQSR (whole phage in the assay) [phage clone Ec 12-22]: no binding (tested: 10^9 pfu).
QWQLHWPASKQA (whole phage in the assay) [phage clone Ec 12-11]: no binding (tested: 10^9 pfu).
B1: no binding (tested: 10^9 pfu).
GWTVFYPDNLRP (whole phage in the assay) [phage clone Ec 12-18]: no binding (tested: 10^9 pfu).
QWEWHYMAGYLA (whole phage in the assay) [phage clone Ec 12-15]: no binding (tested: 10^9 pfu).
SWELYYPLRANL (whole phage in the assay) [phage clone Ec 12-a2]: no binding (tested: 10^9 pfu).
QWEIRYPWPSMG (whole phage in the assay) [phage clone Ec 12-a1]: no binding (tested: 10^9 pfu).
QWTYYLPLTPRW (whole phage in the assay) [phage clone Ec 12-a4]: no binding (tested: 10^9 pfu).
EWTYTFPTAHSI (whole phage in the assay) [phage clone Ec 12-a18]: no binding (tested: 10^9 pfu).
EWFWSWPGYSNT (whole phage in the assay) [phage clone Ec 12-a13]: no binding (tested: 10^9 pfu).
SWEWYIPYLNRT (whole phage in the assay) [phage clone Ec 12-a11]: no binding (tested: 10^9 pfu).
AWTWSLPTLPQS (whole phage in the assay) [phage clone Ec 12-a5]: no binding (tested: 10^9 pfu).
B2: no binding (tested: 10^9 pfu).
B3: no binding (tested: 10^9 pfu).
B4: no binding (tested: 10^9 pfu).
WELVQCLTC (not fully specified; cysteine pairing not given here, whole phage in the assay) [phage clone Ec 1]: no binding (tested: 10^9 pfu).
B5: no binding (tested: 10^9 pfu).
B6: no binding (tested: 10^9 pfu).

These binders were tested against T2, N-cadherin/Fc chimeric protein (assay: phage ELISA).
Description: as §1, §2
SWTWHFPESPPP (whole phage in the assay) [phage clone Ec 12-01]: binds.
SWTFYWPDAQLG (whole phage in the assay) [phage clone Ec 12-06]: binds.
EWTWVFPTTHTS (whole phage in the assay) [phage clone Ec 12-07]: binds.
EWTFQWNSYPAD (whole phage in the assay) [phage clone Ec 12-10]: binds.
EWDFFWPPTQTP (whole phage in the assay) [phage clone Ec 12-19]: binds.
EWQYHWPTLQSR (whole phage in the assay) [phage clone Ec 12-22]: binds.
QWQLHWPASKQA (whole phage in the assay) [phage clone Ec 12-11]: binds.
B1: binds.
GWTVFYPDNLRP (whole phage in the assay) [phage clone Ec 12-18]: binds.
QWEWHYMAGYLA (whole phage in the assay) [phage clone Ec 12-15]: binds.
SWELYYPLRANL (whole phage in the assay) [phage clone Ec 12-a2]: binds.
QWEIRYPWPSMG (whole phage in the assay) [phage clone Ec 12-a1]: binds.
QWTYYLPLTPRW (whole phage in the assay) [phage clone Ec 12-a4]: binds.
EWTYTFPTAHSI (whole phage in the assay) [phage clone Ec 12-a18]: binds.
EWFWSWPGYSNT (whole phage in the assay) [phage clone Ec 12-a13]: binds.
SWEWYIPYLNRT (whole phage in the assay) [phage clone Ec 12-a11]: binds.
AWTWSLPTLPQS (whole phage in the assay) [phage clone Ec 12-a5]: binds.
B2: binds.
B3: binds.
B4: binds.
WELVQCLTC (not fully specified; cysteine pairing not given here, whole phage in the assay) [phage clone Ec 1]: binds.
B5: binds.
B6: binds.

What follows are binders tested against T3, E-cadherin/Fc chimeric protein (assay: phage ELISA).
Description: as §1, §2
SWTWHFPESPPP (whole phage in the assay) [phage clone Ec 12-01]: binds.
SWTFYWPDAQLG (whole phage in the assay) [phage clone Ec 12-06]: binds.
EWTWVFPTTHTS (whole phage in the assay) [phage clone Ec 12-07]: binds.
EWTFQWNSYPAD (whole phage in the assay) [phage clone Ec 12-10]: binds.
EWDFFWPPTQTP (whole phage in the assay) [phage clone Ec 12-19]: binds.
EWQYHWPTLQSR (whole phage in the assay) [phage clone Ec 12-22]: binds.
QWQLHWPASKQA (whole phage in the assay) [phage clone Ec 12-11]: binds.
B1: binds.
GWTVFYPDNLRP (whole phage in the assay) [phage clone Ec 12-18]: binds.
QWEWHYMAGYLA (whole phage in the assay) [phage clone Ec 12-15]: binds.
SWELYYPLRANL (whole phage in the assay) [phage clone Ec 12-a2]: binds.
QWEIRYPWPSMG (whole phage in the assay) [phage clone Ec 12-a1]: binds.
QWTYYLPLTPRW (whole phage in the assay) [phage clone Ec 12-a4]: binds.
EWTYTFPTAHSI (whole phage in the assay) [phage clone Ec 12-a18]: binds.
EWFWSWPGYSNT (whole phage in the assay) [phage clone Ec 12-a13]: binds.
SWEWYIPYLNRT (whole phage in the assay) [phage clone Ec 12-a11]: binds.
AWTWSLPTLPQS (whole phage in the assay) [phage clone Ec 12-a5]: binds.
B2: binds.
B3: binds.
B4: binds.
WELVQCLTC (not fully specified; cysteine pairing not given here, whole phage in the assay) [phage clone Ec 1]: binds.
B5: binds.
B6: binds.
